Reference: publication PMC3995836

Key:
[1] = biological target: WW2 domain of human YAP2 (residues 230-264) (human) (UniProt P46937); experiment: ITC
[2] = biological target: WW1 domain of human YAP2 (residues 171-205) (human) (UniProt P46937); experiment: ITC
Sequence of WW1 domain of human YAP2 (residues 171-205) (human) (P46937 171-205): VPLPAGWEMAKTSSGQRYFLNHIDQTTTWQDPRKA

Sequence of WW2 domain of human YAP2 (residues 230-264) (human) (P46937 230-264): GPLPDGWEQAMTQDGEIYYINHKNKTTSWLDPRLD

For “ErbB4_PY1 peptide (12-mer with the PY1 PPXY motif of the ICD of human ErbB4)”, the dH [1] was -3.9 kcal/mol, the Kd [2] was 113 µM and the dH [2] was -6.14 kcal/mol.
With “ErbB4_PY2 peptide (12-mer with the PY2 PPXY motif of the ICD of human ErbB4)” the Kd [1] was 116 µM, the dH [1] was -4.23 kcal/mol and the Kd [2] was 84 µM. For the same substance, the dH [2] was -2.94 kcal/mol.
For “ErbB4_PY3 peptide, alanine mutant PY3_A+2”, the Kd [1] was 126 µM, the dH [1] was -10.1 kcal/mol and the dH [2] was -12.7 kcal/mol.
“ErbB4_PY3 peptide, alanine mutant PY3_A+4” gave a dH [1] of -8.61 kcal/mol, a Kd [2] of 53 µM and a dH [2] of -9.8 kcal/mol.
Substance “ErbB4_PY3 peptide, alanine mutant PY3_A+5” has a Kd [1] of 46 µM, a dH [1] of -14.6 kcal/mol and a Kd [2] of 15 µM. It also gave a dH [2] of -14.6 kcal/mol.
Substance “ErbB4_PY3 peptide, alanine mutant PY3_A+6” has a Kd [1] of 85 µM, a dH [1] of -9.06 kcal/mol and a Kd [2] of 36 µM. It also gave a dH [2] of -10.3 kcal/mol.
With “ErbB4_PY3 peptide, alanine mutant PY3_A-1” the Kd [1] was 110 µM, the dH [1] was -10.7 kcal/mol and the Kd [2] was 70 µM. The dH [2] was -15.9 kcal/mol.
“ErbB4_PY3 peptide, alanine mutant PY3_A-2” showed a Kd [1] of 83 µM, a dH [1] of -13.1 kcal/mol and a Kd [2] of 45 µM. It also gave a dH [2] of -16.1 kcal/mol.
Work on “ErbB4_PY3 peptide, alanine mutant PY3_A-3” yielded a Kd [1] of 62 µM, a dH [1] of -10.3 kcal/mol and a Kd [2] of 46 µM. It also gave a dH [2] of -16.9 kcal/mol.
With “ErbB4_PY3 peptide, wildtype (12-mer with the PY3 PPXY motif of the ICD of human ErbB4)” the Kd [1] was 56 µM, the dH [1] was -7.72 kcal/mol and the Kd [2] was 31 µM. It also gave a dH [2] of -13.3 kcal/mol.
